Results: article PMC3897551

Biological target: tubulin dimers
Assay: MST

tubulin dimers, sequence (P68363 whole entry, chain 1 of 2): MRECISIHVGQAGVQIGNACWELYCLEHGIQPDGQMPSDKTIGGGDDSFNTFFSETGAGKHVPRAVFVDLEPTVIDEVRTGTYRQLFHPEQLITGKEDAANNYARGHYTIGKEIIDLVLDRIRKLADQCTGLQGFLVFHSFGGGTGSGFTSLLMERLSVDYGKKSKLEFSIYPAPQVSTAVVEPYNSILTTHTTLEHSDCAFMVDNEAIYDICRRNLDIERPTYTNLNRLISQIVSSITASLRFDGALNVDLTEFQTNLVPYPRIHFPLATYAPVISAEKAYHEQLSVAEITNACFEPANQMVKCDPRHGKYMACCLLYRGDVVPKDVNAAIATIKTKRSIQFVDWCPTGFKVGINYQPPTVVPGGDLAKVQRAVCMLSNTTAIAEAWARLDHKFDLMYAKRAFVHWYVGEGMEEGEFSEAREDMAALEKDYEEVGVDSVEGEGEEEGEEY
tubulin dimers, sequence (A8K068 whole entry, chain 2 of 2, further chain): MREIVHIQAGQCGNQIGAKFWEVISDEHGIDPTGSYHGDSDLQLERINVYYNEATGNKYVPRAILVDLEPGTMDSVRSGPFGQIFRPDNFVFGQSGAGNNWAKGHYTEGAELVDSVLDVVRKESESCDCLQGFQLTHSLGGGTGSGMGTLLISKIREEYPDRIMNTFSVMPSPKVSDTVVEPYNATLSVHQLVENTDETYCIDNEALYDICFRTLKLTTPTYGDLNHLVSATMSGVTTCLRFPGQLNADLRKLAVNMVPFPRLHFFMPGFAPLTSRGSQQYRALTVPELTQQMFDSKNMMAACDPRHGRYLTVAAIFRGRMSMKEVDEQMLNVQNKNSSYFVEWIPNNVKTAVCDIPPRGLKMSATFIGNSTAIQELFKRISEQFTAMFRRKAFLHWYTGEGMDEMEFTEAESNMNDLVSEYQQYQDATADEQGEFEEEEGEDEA

B1: GMΔNT phosphorylated by Aurora B/INCENP, Q91636 187-730 (domain or fragment)
chain: GRNNQGRRKSNIVKEMEKMKNKREEQRAQNYERRMKRAQDYDTSVPNWEFGKMIKEFRATMDCHRISMADPAEEHRICVCVRKRPLNKQELSKKEIDIISVPSKNIVLVHEPKLKVDLTKYLENQAFRFDFSFDETATNEVVYRFTARPLVQSIFEGGKATCFAYGQTGSGKTHTMGGDFSGKSQNVSKGVYAFASRDVFLLLDQPRYKHLDLDVFVTFFEIYNGKVFDLLNKKTKLRVLEDAKQEVQVVGLLEKQVISADDVFKMIEIGSACRTSGQTFANTSSSRSHACLQIILRRGSKLHGKFSLVDLAGNERGVDTASADRITRMEGAEINRSLLALKECIRALGQNKSHTPFRESKLTQILRDSFIGENSRTCMIAMLSPGFNSCEYTLNTLRYADRVKELSPQNAETNDDNLQMEDSGGSHASIEGLQLQDDFLLKDEELSTHNSFQDALNRVGELEDKAVDELRELVQKEPEWTNLLQMTEQPDYDLENFVMQAEYLIQERSKVLIALGDSINSLRLALQVEEQASKQISKKKRSNK
modifications: here or on the partner: phosphorylated by Aurora B/INCENP (S196 is retained in this region)
  fold increase in Kd against non-phosphorylated GMΔNT: 16 fold
